Publication PMC9164399, “The PRMT5-LSD1 axis confers Slug dual transcriptional activities and promotes breast cancer progression” (Journal of Experimental & Clinical Cancer Research : CR, 2022)

B1: GST-fused Slug (natural protein, human, UniProt O43623 1-268, looked up)
chain: MPRSFLVKKHFNASKKPNYSELDTHTVIISPYLYESYSMPVIPQPEILSSGAYSPITVWTTAAPFHAQLPNGLSPLSGYSSSLGRVSPPPPSDTSSKDHSGSESPISDEEERLQSKLSDPHAIEAEKFQCNLCNKTYSTFSGLAKHKQLHCDAQSRKSFSCKYCDKEYVSLGALKMHIRTHTLPCVCKICGKAFSRPWLLQGHIRTHTGEKPFSCPHCNRAFADRSNLRAHLQTHSDVKKYQCKNCSKTFSRMSLLHKHEESGCCVAH
notes: Slug (SNAI2), cDNA in the bacterial expression vector pGEX-KG; also called GST-Slug
B2: Flag-Slug (natural protein)
chain: B1 chain
notes: Slug (SNAI2), wild-type cDNA in lentiviral vector CD532A; 268 aa by the printed limits of the fragments; also called Flag-tagged Slug-FL; Flag-tagged Slug; source: HEK293T, expressed, in lysate; purified from HEK293T cells (for the GST pull-down)

Assays:
Flag-PRMT5 = molecular target: T1, Flag-PRMT5 (human, UniProt O14744 1-637); test: pull-down; GST fusion proteins on glutathione-Sepharose 4B beads mixed with Flag-tagged proteins purified from HEK293T cells, 2 h at 4 °C; washed with 50 mM Tris-HCl pH 8.0, 0.2% NP-40, 150 mM NaCl, 2 mM EDTA; immunoblot; conditions: both partners purified
T1 construct: Protein arginine methyltransferase 5 (PRMT5), wild-type cDNA in lentiviral vector CD532A; 637 aa by the printed domain limits; also called Flag-tagged full-length (FL) PRMT5; PRMT5-FL; source: HEK293T, co-expressed, in lysate; purified from HEK293T cells (for the GST pull-down)
T1 sequence (O14744 whole entry, the tested form may be a part): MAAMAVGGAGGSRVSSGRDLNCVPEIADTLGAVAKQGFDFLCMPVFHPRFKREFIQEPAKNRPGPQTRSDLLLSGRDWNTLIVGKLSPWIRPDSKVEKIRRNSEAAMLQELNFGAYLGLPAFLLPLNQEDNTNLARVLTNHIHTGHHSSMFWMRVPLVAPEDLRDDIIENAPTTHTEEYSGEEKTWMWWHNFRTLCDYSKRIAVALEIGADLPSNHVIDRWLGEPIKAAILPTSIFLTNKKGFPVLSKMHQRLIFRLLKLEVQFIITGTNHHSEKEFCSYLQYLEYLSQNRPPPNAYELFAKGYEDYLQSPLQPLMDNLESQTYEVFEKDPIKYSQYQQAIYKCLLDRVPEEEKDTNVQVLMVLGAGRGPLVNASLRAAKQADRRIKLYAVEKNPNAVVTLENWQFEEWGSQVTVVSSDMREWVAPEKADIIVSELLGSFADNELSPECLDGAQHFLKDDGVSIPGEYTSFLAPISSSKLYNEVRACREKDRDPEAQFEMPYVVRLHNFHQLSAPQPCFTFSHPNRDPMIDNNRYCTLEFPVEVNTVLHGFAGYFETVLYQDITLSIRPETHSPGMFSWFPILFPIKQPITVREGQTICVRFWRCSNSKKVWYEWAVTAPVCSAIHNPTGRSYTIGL

GST-fused LSD1 = GST-fused LSD1 (human, UniProt O60341-2 1-876); test: as above; conditions: both partners purified

| Binder | binding result (Flag-PRMT5) | binding result (GST-fused LSD1) |
| --- | --- | --- |
| B1 | binds | – |
| B2 | – | binds |
